# Test results from doi:10.1101/812115.
# Like-named read-outs stand apart in the source and are kept apart here.
# Columns and labels:
# [1] = target: TDP-43 C-terminal domain (TDP-43CTD) (267-414) (UniProt Q13148); assay: co-sedimentation
# [2] = target: TDP-43 C-terminal domain (TDP-43CTD) (267-414) (UniProt Q13148); assay: co-sedimentation; remark: listed apart in the source
# UniProt Q13148, sequence (Q13148 267-414): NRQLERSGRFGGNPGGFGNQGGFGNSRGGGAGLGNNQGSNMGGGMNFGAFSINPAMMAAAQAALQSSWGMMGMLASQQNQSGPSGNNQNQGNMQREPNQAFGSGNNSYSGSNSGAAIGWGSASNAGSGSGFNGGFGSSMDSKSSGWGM
stoichiometry N (GRN per TDP-43CTD) [1],stoichiometry N (GRN per TDP-43CTD) [2],Substance
0.75,0.73,"GRN-5 (granulin-5, oxidized) (domain or fragment)"
1.1,–,"rGRN-5 (granulin-5, fully reduced) (domain or fragment)"
